Target: the molecule itself
Test: single molecule subunit counting

B1: C-terminally GFP-tagged mGluR2 (receptor, rat, UniProt P31421 19-872, looked up)
chain: EGPAKKVLTLEGDLVLGGLFPVHQKGGPAEECGPVNEHRGIQRLEAMLFALDRINRDPHLLPGVRLGAHILDSCSKDTHALEQALDFVRASLSRGADGSRHICPDGSYATHSDAPTAVTGVIGGSYSDVSIQVANLLRLFQIPQISYASTSAKLSDKSRYDYFARTVPPDFFQAKAMAEILRFFNWTYVSTVASEGDYGETGIEAFELEARARNICVATSEKVGRAMSRAAFEGVVRALLQKPSARVAVLFTRSEDARELLAATQRLNASFTWVASDGWGALESVVAGSERAAEGAITIELASYPISDFASYFQSLDPWNNSRNPWFREFWEERFHCSFRQRDCAAHSLRAVPFEQESKIMFVVNAVYAMAHALHNMHRALCPNTTHLCDAMRPVNGRRLYKDFVLNVKFDAPFRPADTDDEVRFDRFGDGIGRYNIFTYLRAGSGRYRYQKVGYWAEGLTLDTSFIPWASPSAGPLPASRCSEPCLQNEVKSVQPGEVCCWLCIPCQPYEYRLDEFTCADCGLGYWPNASLTGCFELPQEYIRWGDAWAVGPVTIACLGALATLFVLGVFVRHNATPVVKASGRELCYILLGGVFLCYCMTFVFIAKPSTAVCTLRRLGLGTAFSVCYSALLTKTNRIARIFGGAREGAQRPRFISPASQVAICLALISGQLLIVAAWLVVEAPGTGKETAPERREVVTLRCNHRDASMLGSLAYNVLLIALCTLYAFKTRKCPENFNEAKFIGFTMYTTCIIWLAFLPIFYVTSSDYRVQTTTMCVSVSLSGSVVLGCLFAPKLHIILFQPQKNVVSHRAPTSRFGSAAPRASANLGQGSGSQFVPTVCNGREVVDSTTSSL
For B1, the “stoichiometry N” value was 2.

— publication PMC5053906 (Neuron, 2016)
